Experimental data as given in IntAct's records for PubMed 28497574.

B1: Methylmalonic aciduria type A protein, mitochondrial (Homo sapiens), Q8IVH4 (parent)
chain: MPMLLPHPHQHFLKGLLRAPFRCYHFIFHSSTHLGSGIPCAQPFNSLGLHCTKWMLLSDGLKRKLCVQTTLKDHTEGLSDKEQRFVDKLYTGLIQGQRACLAEAITLVESTHSRKKELAQVLLQKVLLYHREQEQSNKGKPLAFRVGLSGPPGAGKSTFIEYFGKMLTERGHKLSVLAVDPSSCTSGGSLLGDKTRMTELSRDMNAYIRPSPTRGTLGGVTRTTNEAILLCEGAGYDIILIETVGVGQSEFAVADMVDMFVLLLPPAGGDELQGIKRGIIEMADLVAVTKSDGDLIVPARRIQAEYVSALKLLRKRSQVWKPKVIRISARSGEGISEMWDKMKDFQDLMLASGELTAKRRKQQKVWMWNLIQESVLEHFRTHPTVREQIPLLEQKVLIGALSPGLAADFLLKAFKSRD
partner: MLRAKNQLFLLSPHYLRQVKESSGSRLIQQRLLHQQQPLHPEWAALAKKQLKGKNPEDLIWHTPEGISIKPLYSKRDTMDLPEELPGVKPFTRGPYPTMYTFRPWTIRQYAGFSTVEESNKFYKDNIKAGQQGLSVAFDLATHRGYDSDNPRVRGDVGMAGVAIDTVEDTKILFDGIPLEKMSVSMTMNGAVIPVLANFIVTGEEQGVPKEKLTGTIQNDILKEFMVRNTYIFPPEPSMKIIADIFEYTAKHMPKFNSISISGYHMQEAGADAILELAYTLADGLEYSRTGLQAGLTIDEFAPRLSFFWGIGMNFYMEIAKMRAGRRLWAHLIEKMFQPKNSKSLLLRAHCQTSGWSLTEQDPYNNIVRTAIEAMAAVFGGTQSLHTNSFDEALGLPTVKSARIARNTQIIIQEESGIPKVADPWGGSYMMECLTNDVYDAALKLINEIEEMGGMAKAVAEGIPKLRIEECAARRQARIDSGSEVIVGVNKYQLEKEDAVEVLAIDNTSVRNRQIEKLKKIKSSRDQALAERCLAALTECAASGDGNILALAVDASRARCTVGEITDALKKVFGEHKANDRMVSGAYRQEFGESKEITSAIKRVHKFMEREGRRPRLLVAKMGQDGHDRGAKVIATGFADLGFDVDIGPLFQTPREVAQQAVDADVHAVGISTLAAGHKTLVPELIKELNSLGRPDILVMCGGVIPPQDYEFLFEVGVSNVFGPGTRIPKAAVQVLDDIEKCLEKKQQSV

Variants of: B1
Conditions: with muta_human MMUT

effect of a mutation on the interaction | Variant
decreasing interaction strength | MPMLLPHPHQHFLKGLLRAPFRCYHFIFHSSTHLGSGIPCAQPFNSLGLHCTKWMLLSDGLKRKLCVQTTLKDHTEGLSDKEQRFVDKLYTGLIQGQRACLAEAITLVESTHSRKKELAQVLLQKVLLYHREQEQSNKGKPLAFRVGLSGPPGAGKSTFIEYFGKMLTERGHKLSVLAVDPSSCTSGGSLLDDKTRMTELSRDMNAYIRPSPTRGTLGGVTRTTNEAILLCEGAGYDIILIETVGVGQSEFAVADMVDMFVLLLPPAGGDELQGIKRGIIEMADLVAVTKSDGDLIVPARRIQAEYVSALKLLRKRSQVWKPKVIRISARSGEGISEMWDKMKDFQDLMLASGELTAKRRKQQKVWMWNLIQESVLEHFRTHPTVREQIPLLEQKVLIGALSPGLAADFLLKAFKSRD [G192D]
disrupting interaction strength | MPMLLPHPHQHFLKGLLRAPFRCYHFIFHSSTHLGSGIPCAQPFNSLGLHCTKWMLLSDGLKRKLCVQTTLKDHTEGLSDKEQRFVDKLYTGLIQGQRACLAEAITLVESTHSRKKELAQVLLQKVLLYHREQEQSNKGKPLAFRVGLSGPPGAGKSTFIEYFGKMLTERGHKLSVLAVDPSSCTSGGSLLGDKTRMTELSRDMNAYIRPSPTRGTLEGVTRTTNEAILLCEGAGYDIILIETVGVGQSEFAVADMVDMFVLLLPPAGGDELQGIKRGIIEMADLVAVTKSDGDLIVPARRIQAEYVSALKLLRKRSQVWKPKVIRISARSGEGISEMWDKMKDFQDLMLASGELTAKRRKQQKVWMWNLIQESVLEHFRTHPTVREQIPLLEQKVLIGALSPGLAADFLLKAFKSRD [G218E]
disrupting interaction strength | MPMLLPHPHQHFLKGLLRAPFRCYHFIFHSSTHLGSGIPCAQPFNSLGLHCTKWMLLSDGLKRKLCVQTTLKDHTEGLSDKEQRFVDKLYTGLIQGQRACLAEAITLVESTHSRKKELAQVLLQKVLLYHREQEQSNKGKPLAFRVGLSGPPGAGKSTFIEYFGKMLTERGHKLSVLAVDPSSCTSGGSLLGDKTRMTELSRDMNAYISPSPTRGTLGGVTRTTNEAILLCEGAGYDIILIETVGVGQSEFAVADMVDMFVLLLPPAGGDELQGIKRGIIEMADLVAVTKSDGDLIVPARRIQAEYVSALKLLRKRSQVWKPKVIRISARSGEGISEMWDKMKDFQDLMLASGELTAKRRKQQKVWMWNLIQESVLEHFRTHPTVREQIPLLEQKVLIGALSPGLAADFLLKAFKSRD [R209S]
disrupting interaction strength | MPMLLPHPHQHFLKGLLRAPFRCYHFIFHSSTHLGSGIPCAQPFNSLGLHCTKWMLLSDGLKRKLCVQTTLKDHTEGLSDKEQRFVDKLYTGLIQGQRACLAEAITLVESTHSRKKELAQVLLQKVLLYHREQEQSNKGKPLAFRVGLSGPPGAGKSTFIEYFGKMLTERGHKLSVLAVDPSSCTSGGSLLGDKTRMTELSRDMNACIRPSPTRGTLGGVTRTTNEAILLCEGAGYDIILIETVGVGQSEFAVADMVDMFVLLLPPAGGDELQGIKRGIIEMADLVAVTKSDGDLIVPARRIQAEYVSALKLLRKRSQVWKPKVIRISARSGEGISEMWDKMKDFQDLMLASGELTAKRRKQQKVWMWNLIQESVLEHFRTHPTVREQIPLLEQKVLIGALSPGLAADFLLKAFKSRD [Y207C]
disrupting interaction strength | MPMLLPHPHQHFLKGLLRAPFRCYHFIFHSSTHLGSGIPCAQPFNSLGLHCTKWMLLSDGLKRKLCVQTTLKDHTEGLSDKEQRFVDKLYTGLIQGQGACLAEAITLVESTHSRKKELAQVLLQKVLLYHREQEQSNKGKPLAFRVGLSGPPGAGKSTFIEYFGKMLTERGHKLSVLAVDPSSCTSGGSLLGDKTRMTELSRDMNAYIRPSPTRGTLGGVTRTTNEAILLCEGAGYDIILIETVGVGQSEFAVADMVDMFVLLLPPAGGDELQGIKRGIIEMADLVAVTKSDGDLIVPARRIQAEYVSALKLLRKRSQVWKPKVIRISARSGEGISEMWDKMKDFQDLMLASGELTAKRRKQQKVWMWNLIQESVLEHFRTHPTVREQIPLLEQKVLIGALSPGLAADFLLKAFKSRD [R98G]
decreasing interaction strength | MPMLLPHPHQHFLKGLLRAPFRCYHFIFHSSTHLGSGIPCAQPFNSLGLHCTKWMLLSDGLKRKLCVQTTLKDHTEGLSDKEQRFVDKLYTGLIQGQRACLAEAITLVESTHSRKKELAQVLLQKVLLYHREQEQSNKGKPLAFRVGLSGPPGAGKSTFIEYFGKMLTERGHKLSVLAVDPSSCTSGGSLLGDKTRMTELSRDMNAYIRPSPTRGTLGGVTRTTNEAILLCEGAGYDIILIETVGVGQSKFAVADMVDMFVLLLPPAGGDELQGIKRGIIEMADLVAVTKSDGDLIVPARRIQAEYVSALKLLRKRSQVWKPKVIRISARSGEGISEMWDKMKDFQDLMLASGELTAKRRKQQKVWMWNLIQESVLEHFRTHPTVREQIPLLEQKVLIGALSPGLAADFLLKAFKSRD [E250K]
decreasing interaction strength | MPMLLPHPHQHFLKGLLRAPFRCYHFIFHSSTHLGSGIPCAQPFNSLGLHCTKWMLLSDGLKRKLCVQTTLKDHTEGLSDKEQRFVDKLYTGLIQGQRACLAEAITLVESTHSRKKELAQVLLQKVLLYHREQEQSNKGKPLAFRVGLSGPPGAGKSTFIEYFGKMLTERGHKLSVLAVDPSSCTSGGSLLGDKTRMTELSRDMNAYIRPSPTRGTLGGVTRTTNEAILLCEGAGYDIILIETVGVGQSEFAVADMVDMFVLLLPPAGGDELQSIKRGIIEMADLVAVTKSDGDLIVPARRIQAEYVSALKLLRKRSQVWKPKVIRISARSGEGISEMWDKMKDFQDLMLASGELTAKRRKQQKVWMWNLIQESVLEHFRTHPTVREQIPLLEQKVLIGALSPGLAADFLLKAFKSRD [G274S]

Variants of: B1
Conditions: with muta_human MMUT
Remark: another data set of the same source

effect of a mutation on the interaction | Variant
disrupting interaction strength | MPMLLPHPHQHFLKGLLRAPFRCYHFIFHSSTHLGSGIPCAQPFNSLGLHCTKWMLLSDGLKRKLCVQTTLKDHTEGLSDKEQRFVDKLYTGLIQGQRACLAEAITLVESTHSRKKELAQVLLQKVLLYHREQEQSNKGKPLAFRVGLSGPPGAGKSTFIEYFGKMLTERGHKLSVLAVDPSSCTSGGSLLGDKTRMTELSRDMNAYIRPSPTRGTLGGVTRTTNEAILLCEGAGYDIILIENVGVGQSEFAVADMVDMFVLLLPPAGGDELQGIKRGIIEMADLVAVTKSDGDLIVPARRIQAEYVSALKLLRKRSQVWKPKVIRISARSGEGISEMWDKMKDFQDLMLASGELTAKRRKQQKVWMWNLIQESVLEHFRTHPTVREQIPLLEQKVLIGALSPGLAADFLLKAFKSRD [T243N]
